Here are results for one substance from US20160024226A1.

In the assay the target is TNF-α (WEHI-13VAR cytotoxicity assay of Example 2).

For cycloalkyne-modified adalimumab Fab′, the IC50 (read off the curve) [lower panel] was 0.5 µg/mL and the IC50 (read off the curve) [upper panel] amounted to 0.3 µg/mL.
